# Measured values from PMC2871789, “Characterization of the Interaction and Cross-Regulation of Three Mycobacterium tuberculosis RelBE Modules”.
# B1: 2865p7 (dsDNA)
# DNA 1: AAACCTGAGACGCCGCGCACAAAGTGCGAAACC
# DNA 2: GGTTTCGCACTTTGTGCGCGGCGTCTCAGGTTT
# B2: 3357p7 (dsDNA)
# DNA 1: CCACCGTACGGACAACTTGTACCATTGTGGTACAGATTATCCGTACATCTT
# DNA 2: AAGATGTACGGATAATCTGTACCACAATGGTACAAGTTGTCCGTACGGTGG
# B3: 1247p7 (dsDNA)
# DNA 1: GGCGTTCGGCTCGGTAAGCCGATGCTCGGCG
# DNA 2: CGCCGAGCATCGGCTTACCGAGCCGAACGCC
# How the values were obtained:
# RelF;RelG = molecular target: T1, RelF;RelG (Mycobacterium tuberculosis …, UniProt O33347;O33348 1-93;1-87, |); assay: EMSA; conditions: protein: recombinant;recombinant; tags: His or GST;His or GST; label: 5'-32P; blunt
# T1 sequence 1: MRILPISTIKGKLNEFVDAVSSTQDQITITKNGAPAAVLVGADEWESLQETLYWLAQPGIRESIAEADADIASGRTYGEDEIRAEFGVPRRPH
# T1 sequence 2: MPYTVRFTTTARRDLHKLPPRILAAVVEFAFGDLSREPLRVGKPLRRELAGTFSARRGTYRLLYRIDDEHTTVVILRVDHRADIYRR
# RelJ = molecular target: T2, RelJ (Mycobacterium tuberculosis H37Rv, UniProt P9WF25 1-91); assay: EMSA; 7.5 uM RelJ alone; conditions: protein: recombinant; tags: His or GST; chain copies: 2; label: 5'-32P; blunt
# T2 sequence: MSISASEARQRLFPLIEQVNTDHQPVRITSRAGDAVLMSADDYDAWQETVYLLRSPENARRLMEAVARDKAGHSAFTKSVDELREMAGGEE
# RelJ;RelK = RelJ;RelK (Mycobacterium tuberculosis …, UniProt P9WF25;P9WF09 1-91;1-85, |); assay: EMSA; 1.8-15 uM titration; conditions: protein: recombinant;recombinant; tags: His or GST;His or GST; label: 5'-32P; blunt
# RelB;RelE = molecular target: T3, RelB;RelE (Mycobacterium tuberculosis …, UniProt O50462;O50461 1-89;1-97, |); assay: EMSA; 1.8-15 uM titration; conditions: protein: recombinant;recombinant; tags: His (modified pET28a);His or GST; chain copies: 2;2; label: 5'-32P; blunt
# T3 sequence 1: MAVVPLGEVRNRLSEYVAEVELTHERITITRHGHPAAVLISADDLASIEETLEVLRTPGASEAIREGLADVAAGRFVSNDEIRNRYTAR
# T3 sequence 2: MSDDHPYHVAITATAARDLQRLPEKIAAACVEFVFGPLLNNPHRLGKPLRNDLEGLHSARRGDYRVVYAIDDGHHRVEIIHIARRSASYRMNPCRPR
# Chain of RelJ;RelK (P9WF09 whole entry, one chain of several): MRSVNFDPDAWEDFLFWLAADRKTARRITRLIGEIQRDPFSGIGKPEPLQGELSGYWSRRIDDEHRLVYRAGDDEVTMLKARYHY
binder,measurement,setting,value
B1,binding result,RelF;RelG,binds
B2,binding result,RelJ,binds
same,binding result,RelJ;RelK,binds
B3,binding result,RelB;RelE,binds
